Measurements taken from PMC11907795.

Target: PthA4-His (Xanthomonas citri subsp. citri (strain …, UniProt A0AAI8ETU3 1-1163))
Assay: EMSA; poly dI-dC; unlabeled competitor 1x-800x
Conditions: protein: recombinant; tags: His (N-terminal, pET28a); label: Cy5; blunt

B1: ProCsGRAS9 (dsDNA)
DNA 1: TATATACATACACACACACACACACACACATAT
DNA 2: ATATGTGTGTGTGTGTGTGTGTGTATGTATATA
  binding result: binds
